We go through five molecules from patent US20210087291A1 (Hoffmann-La Roche, published 2021).

Test [1] concerns the target T1, human FolR3 ECD-AcTev-Fcknob-Avi tag + Fc hole, biotinylated monomeric Fc fusion (human, UniProt P0DOX5 223-449 = IgG part).
T1 construct: also called huFolR3; FolR3-Fc
In words: SPR ProteOn, Fab analyte.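 Also: recombinant antigens immobilized, purified Fab two-fold dilutions injected in parallel channels, 200 s association and 600 s dissociation, buffer-only channel as in-line reference.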
Description: (§1) Immobilization of antigens (ligand): Recombinant antigens were diluted with PBST (10 mM phosphate, 150 mM sodium chloride pH 7.4, 0.005% Tween 20) to 10 μg/ml, then injected at 30 μl/minute in vertical orientation.
(§2) Injection of analytes: For ‘one-shot kinetics’ measurements, injection direction was changed to horizontal orientation, two-fold dilution series of purified Fab (varying concentration ranges) were injected simultaneously along separate channels 1-5, with association times of 200 s, and dissociation times of 600 s. Buffer (PBST) was injected along the sixth channel to provide an “in-line” blank for referencing. Association rate constants (kₒₙ) and dissociation rate constants (koff) were calculated using a simple one-to-one Langmuir binding model in ProteOn Manager v3.1 software by simultaneously fitting the association and dissociation sensorgrams. The equilibrium dissociation constant (KD) was calculated as the ratio koff/kₒₙ.

In test [2] the target is T2, human FolR1 ECD-AcTev-Fcknob-Avi tag + Fc hole, biotinylated monomeric Fc fusion (human, UniProt P0DOX5 223-449 = IgG part).
T2 construct: also called huFolR1; huFolR1-Fc
Nature of the test: SPR ProteOn, Fab analyte.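 Also: recombinant antigens immobilized, purified Fab two-fold dilutions injected in parallel channels, 200 s association and 600 s dissociation, buffer-only channel as in-line reference.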
Description: as §1, §2

In test [3] the target is T3, cynomolgus FolR1 ECD-AcTev-Fcknob-Avi tag + Fc hole, biotinylated monomeric Fc fusion (cynomolgus, UniProt P0DOX5 223-449 = IgG part).
T3 construct: also called cyFolR1; cyno FolR1-Fc
In words: SPR ProteOn, Fab analyte.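 Also: recombinant antigens immobilized, purified Fab two-fold dilutions injected in parallel channels, 200 s association and 600 s dissociation, buffer-only channel as in-line reference.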
Description: as §1, §2

For test [4], the target named is T4, human FolR2 ECD-AcTev-Fcknob-Avi tag + Fc hole, biotinylated monomeric Fc fusion (human, UniProt P0DOX5 223-449 = IgG part).
T4 construct: also called huFolR2; FolR2-Fc
Nature of the test: SPR ProteOn, Fab analyte.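 Also: recombinant antigens immobilized, purified Fab two-fold dilutions injected in parallel channels, 200 s association and 600 s dissociation, buffer-only channel as in-line reference.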
Description: as §1, §2

For test [5], the target named is T5, cynomolgus TIM-3 on isolated cyno CD14+ monocytes (cynomolgus).
T5 construct: whole, on cells
In words: flow cytometry, cyno CD14+ monocytes cyno3. On the technique in general: In flow cytometry, cells or beads pass a laser one at a time.
Excerpt: (§3) CD14+ Monocytes were isolated from cynomolgus monkey anticoagulated peripheral blood (Covance) by density gradient centrifugation using Ficoll-Paque (GE Healthcare) (see General Protocols in the User Manuals or visit www.miltenyibiotec.com/protocols) and subsequent positive selection via NHP CD14 MicroBeads. First the CD14+ cells are magnetically labeled with CD14 MicroBeads. Then the cell suspension is loaded onto a MACS® Column which is placed in the magnetic field of a MACS Separator. The magnetically labeled CD14+ cells are retained in the column. The unlabeled cells run through, this cell fraction is depleted of CD14+ cells. After removal of the column from the magnetic field, the magnetically retained CD14+ cells can be eluted as the positively selected cell fraction. After centrifugation at 200×g for 10 min at room temperature the monocytes were harvested and used directly in binding assay or resuspended in freezing medium (10% DMSO, 90% FCS) at 1.0E+07 cells/ml and stored in liquid nitrogen.
(§4) 1×10⁵ CD14+ isolated cyno monocytes (50 μl/well) were put into 98 well-v bottom MTP in fresh culture medium and incubated with Redimune® NF Liquid for 15 min at RT to block unspecific binding. Than 50 μl/well of Alexa488 labeled anti-TIM3 (10 μg/ml in cell culture medium) were added and incubated for 1 h at 4° C. After washing and centrifugation MFI signals of stained cells were analyzed by BD Biosciences FACSCanto flow cytometer.

Test [6] addresses T6, human TIM-3 on cells (human, UniProt Q8TDQ0 22-301). Nature of the test: cell-based or functional assay.
Test [7] addresses T6, human TIM-3 on cells. Nature of the test: flow cytometry, human CD14+ monocytes donor1.
In test [8] the target is T6, human TIM-3 on cells. In words: flow cytometry, human CD14+ monocytes donor2.
Test [9] has as its target T5, cynomolgus TIM-3 on isolated cyno CD14+ …. Nature of the test: flow cytometry, cyno CD14+ monocytes cyno2.
Excerpt: as §3, §4
The target in test [10] is T6, human TIM-3 on cells. Nature of the test: flow cytometry, human CD14+ monocytes donor3.
Excerpt: CD14+ Monocytes were isolated from anticoagulated peripheral blood of healthy donors by density gradient centrifugation using Ficoll-Paque (GE Healthcare) (see General Protocols in the User Manuals or visit www.miltenyibiotec.com/protocols) and subsequent positive selection via CD14 MicroBeads. First the CD14+ cells are magnetically labeled with CD14 MicroBeads. Then the cell suspension is loaded onto a MACS® Column which is placed in the magnetic field of a MACS Separator. The magnetically labeled CD14+ cells are retained in the column. The unlabeled cells run through, this cell fraction is depleted of CD14+ cells. After removal of the column from the magnetic field, the magnetically retained CD14+ cells can be eluted as the positively selected cell fraction. After centrifugation at 200×g for 10 min at room temperature the monocytes were harvested and used directly in binding assay or resuspended in freezing medium (10% DMSO, 90% FCS) at 1.0E+07 cells/ml and stored in liquid nitrogen.
1×10⁵ CD14+ isolated human monocytes (50 μl/well) were put into 98 well-v bottom MTP in fresh culture medium and incubated with Redimune® NF Liquid for 15 min at RT to block unspecific binding. […] After washing and centrifugation MFI signals of stained cells were analyzed by BD Biosciences FACSCanto flow cytometer.
The target of test [11] is T5, cynomolgus TIM-3 on isolated cyno CD14+ …. In words: flow cytometry, cyno CD14+ monocytes cyno1.
Excerpt: as §3, §4
Test [12] deals with T6, human TIM-3 on cells. In words: cell-based or functional assay. This is another data set of the same source.
The target in test [13] is T7, murine FolR1 ECD-AcTev-Fcknob-Avitag + Fc hole, biotinylated monomeric Fc fusion (murine, UniProt P0DOX5 223-449 = IgG part).
T7 construct: also called muFolR1; murine FolR1-Fc
Nature of the test: SPR, IgG single injection.

B1: 20G6 Fab (Fab, V domains shown)
VH: QVQLVQSGAEVKKPGASVKVSCKASGYTFTSYYMHWVRQAPGQGLEWMGIINPSGGSTSYAQKFQGRVTMTRDTSTSTVYMELSSLRSEDTAVYYCARGEWIRYYHFDYWGQGTLVTVSS
VL: QAVVTQEPSLTVSPGGTVTLTCGSSTGAVTTSNYANWVQEKPGQAFRGLIGGTNKRAPGTPARFSGSLLGGKAALTLSGAQPEDEAEYYCALWYSNLWVFGGGTKLTVL
As for B1, the binding result in test [1], in [2], in [3] and in test [4] was “no binding” throughout.

B2: 18D3 Fab (Fab, V domains shown)
VH: QVQLVQSGAEVKKPGASVKVSCKASGYTFTSYYMHWVRQAPGQGLEWMGIINPSGGSTSYAQKFQGRVTMTRDTSTSTVYMELSSLRSEDTAVYYCARNYYTGGSSAFDYWGQGTLVTVS
VL: QAVVTQEPSLTVSPGGTVTLTCGSSTGAVTTSNYANWVQEKPGQAFRGLIGGTNKRAPGTPARFSGSLLGGKAALTLSGAQPEDEAEYYCALWYSNLWVFGGGTKLTVL
As for B2, the binding result in test [1] and in test [4] was “no binding” throughout. The values for the dissociation constant (Kd) in [2] and in [3] were 93.6 nM and 40.2 nM, respectively.

B3: Tim3_0038 (antibody, V domains shown)
VH: EVQLQQSGAEPLKPGASVKLTCTTSGFNIKDYYIHWVKQRSDQGLEWIGRIDPEDGELIYAPKFQDKATITVDTSSNIAYLQLNSLTSEDTAVYYCSRDHGYVGWFAYWGQGTLVTVSA
VL: NVVMTQSPKSMIMSVGQRVTLNCKASENVDTYVSWYQQKPEQSPKLLIYGASNRYTGVPDRFTGSRSATDFTLTISSVQAEDLAVYYCGQSYSYPWTFGGGTKLEFR
As for B3, the MFI amounted to 120 MFI in test [5], 107 MFI in [9] and 97 MFI in test [11]. Further, the “IFN-gamma release in MLR at 1 µg/ml, % of IL-2 control” value with human TIM-3 on cells [6] is 1%. Besides, in the test with human TIM-3 on cells [6], the “IFN-gamma release in MLR at 10 µg/ml, % of IL-2 control” value amounted to 38%. Also, in the test with human TIM-3 on cells [6], the “IFN-gamma release in MLR at 40 µg/ml, % of IL-2 control” value amounted to 51%. For the same molecule, the “specific binding MFI” value with human TIM-3 on cells [7] was 1640 MFI; with human TIM-3 on cells [8], 1370 MFI; with human TIM-3 on cells [10], 1400 MFI.

B4: Tim3_0028 (antibody, V domains shown)
VH: EVQLQQSVAELVRPGASVKLSCTASGFNIKTTYMHWVKQRPEQGLEWIGRIDPADDNTKYAPKFQGKATITADTSSNTAYLQLSSLTSEDAAIYYCVRDFGYVAWFAYWGQGTLVTFSA
VL: NIVMTPTPKFLPVSSGDRVTMTCRASQSVDNYVAWYQQKPGQSPKLLIYYASNRYIGVPDRFTGSGSGTDFTFTISSVQVEDLAVYFCQQHYSSPYTFGSGTKLEIK
Consider B4, for which, in test [5], the MFI came to 4090 MFI. Also, the “IFN-gamma release in MLR at 1 µg/ml, % of IL-2 control” value in the test with human TIM-3 on cells [6] was determined as 12%. The “specific binding MFI” value in the test with human TIM-3 on cells [7] was determined as 1350 MFI. Besides, the “specific binding MFI” value with human TIM-3 on cells [8] turned out to be 950 MFI. Besides, in the test with human TIM-3 on cells [12], the “internalization at 30 Min, RPMI-8226” value turned out to be 50%; the “internalization at 60 Min, RPMI-8226” value was found to be 59%; the “internalization at 120 Min, RPMI-8226” value was determined as 67%; the “internalization at 240 Min, RPMI-8226” value was 68%. Further, the “internalization at 26 h, RPMI-8226” value with human TIM-3 on cells [12] came out at 83%. Further, the MFI in test [9] was found to be 3000 MFI. In addition, the “specific binding MFI” value with human TIM-3 on cells [10] amounted to 1610 MFI. Also, in test [11], the MFI was determined as 3940 MFI.

B5: 6B6 IgG (antibody, V domains shown)
VH: QVQLVQSGAEVKKPGASVKVSCKASGYTFTSYYMHWVRQAPGQGLEWMGIINPSGGSTSYAQKFQGRVTMTRDTSTSTVYMELSSLRSEDTAVYYCARSYVDMDYWGQGTLVTVSS
VL: EIVLTQSPGTLSLSPGERATLSCRASQSVSSSYLAWYQQKPGQAPRLLIYGASSRATGIPDRFSGSGSGTDFTLTISRLEPEDFAVYYCQQDIWSPTFGQGTKVEIK
notes: human IgG1
B5: the binding result in test [13] is on record as “no binding (tested: 500 nM)”.

The Kd is the constant that tells how readily two partners part at equilibrium.
